Measurements reported in patent US20240299505A1 (INDUSTRY UNIVERSITY COOPERATION FOUNDATION HANYANG …, published 2024).

T1: endogenous CYBB of mouse macrophages (BMDMs) and mouse colon (mouse, UniProt Q61093 2-570)
T1 construct: whole, on cells; Detected by immunoblot after co-immunoprecipitation from lysates; also called NOX2; gp91Phox
T1 sequence (looked up): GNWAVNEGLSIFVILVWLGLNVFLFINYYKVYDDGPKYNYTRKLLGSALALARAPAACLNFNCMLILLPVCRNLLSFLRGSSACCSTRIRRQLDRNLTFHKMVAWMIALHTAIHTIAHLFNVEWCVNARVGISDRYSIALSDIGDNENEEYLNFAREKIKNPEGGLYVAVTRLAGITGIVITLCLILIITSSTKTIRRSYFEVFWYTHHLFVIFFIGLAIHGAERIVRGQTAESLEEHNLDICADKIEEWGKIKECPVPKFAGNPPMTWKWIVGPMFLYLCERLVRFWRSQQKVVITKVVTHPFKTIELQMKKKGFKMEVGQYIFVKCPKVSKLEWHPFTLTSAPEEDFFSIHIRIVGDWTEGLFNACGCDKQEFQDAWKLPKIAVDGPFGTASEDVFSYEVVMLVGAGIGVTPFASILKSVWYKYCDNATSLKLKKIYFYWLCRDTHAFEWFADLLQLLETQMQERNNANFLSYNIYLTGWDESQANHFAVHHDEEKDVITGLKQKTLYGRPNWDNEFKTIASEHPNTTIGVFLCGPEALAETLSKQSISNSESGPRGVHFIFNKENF

T2: endogenous TLR4 of mouse macrophages (BMDMs) and mouse colon (mouse, UniProt Q9QUK6 26-835)
T2 construct: whole, on cells; Detected by immunoblot after co-immunoprecipitation from lysates
T2 sequence (looked up): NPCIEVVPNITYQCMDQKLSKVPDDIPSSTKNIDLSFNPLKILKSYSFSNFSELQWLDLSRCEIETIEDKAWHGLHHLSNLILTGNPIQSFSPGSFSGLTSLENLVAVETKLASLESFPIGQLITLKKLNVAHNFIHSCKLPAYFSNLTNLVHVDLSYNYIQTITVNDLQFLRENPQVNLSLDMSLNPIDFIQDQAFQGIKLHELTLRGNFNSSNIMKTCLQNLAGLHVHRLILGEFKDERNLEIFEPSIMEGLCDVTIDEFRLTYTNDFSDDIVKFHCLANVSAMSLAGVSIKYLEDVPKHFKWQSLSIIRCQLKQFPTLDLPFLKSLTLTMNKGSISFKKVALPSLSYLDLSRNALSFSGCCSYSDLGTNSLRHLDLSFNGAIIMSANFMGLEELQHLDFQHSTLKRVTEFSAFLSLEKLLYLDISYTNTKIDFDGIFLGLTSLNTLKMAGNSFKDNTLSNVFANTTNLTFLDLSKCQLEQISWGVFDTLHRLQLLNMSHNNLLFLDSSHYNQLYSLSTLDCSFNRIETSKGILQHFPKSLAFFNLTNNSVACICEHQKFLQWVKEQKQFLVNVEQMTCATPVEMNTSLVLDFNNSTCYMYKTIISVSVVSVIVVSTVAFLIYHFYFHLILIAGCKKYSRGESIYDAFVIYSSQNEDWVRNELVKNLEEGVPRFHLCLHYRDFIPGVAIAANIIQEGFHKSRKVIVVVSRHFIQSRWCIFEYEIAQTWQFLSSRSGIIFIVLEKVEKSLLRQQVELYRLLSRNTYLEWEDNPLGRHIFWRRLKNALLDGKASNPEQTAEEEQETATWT

B1: fluorescently labeled CYBB (enzyme)
chain: MGNWAVNEGLSIFVILVWLGLNVFLFVWYYRVYDIPPKFFYTRKLLGSALALARAPAACLNFNCMLILLPVCRNLLSFLRGSSACCSTRVRRQLDRNLTFHKMVAWMIALHSAIHTIAHLFNVEWCVNARVNNSDPYSVALSELGDRQNESYLNFARKRIKNPEGGLYLAVTLLAGITGVVITLCLILIITSSTKTIRRSYFEVFWYTHHLFVIFFIGLAIHGAERIVRGQTAESLAVHNITVCEQKISEWGKIKECPIPQFAGNPPMTWKWIVGPMFLYLCERLVRFWRSQQKVVITKVVTHPFKTIELQMKKKGFKMEVGQYIFVKCPKVSKLEWHPFTLTSAPEEDFFSIHIRIVGDWTEGLFNACGCDKQEFQDAWKLPKIAVDGPFGTASEDVFSYEVVMLVGAGIGVTPFASILKSVWYKYCNNATNLKLKKIYFYWLCRDTHAFEWFADLLQLLESQMQERNNAGFLSYNIYLTGWDESQANHFAVHHDEEKDVITGLKQKTLYGRPNWDNEFKTIASQHPNTRIGVFLCGPEALAETLSKQSISNSESGPRGVHFIFNKENF
B2: endogenous ASC of mouse macrophages (BMDMs) (other, UniProt Q9EPB4 1-193, looked up)
chain: MGRARDAILDALENLSGDELKKFKMKLLTVQLREGYGRIPRGALLQMDAIDLTDKLVSYYLESYGLELTMTVLRDMGLQELAEQLQTTKEESGAVAAAASVPAQSTARTGHFVDQHRQALIARVTEVDGVLDALHGSVLTEGQYQAVRAETTSQDKMRKLFSFVPSWNLTCKDSLLQALKEIHPYLVMDLEQS
B3: recombinant NAMPT protein (rNAMPT) (enzyme)
chain: MNPAAEAEFNILLATDSYKVTHYKQYPPNTSKVYSYFECREKKTENSKLRKVKYEETVFYGLQYILNKYLKGKVVTKEKIQEAKDVYKEHFQDDVFNEKGWNYILEKYDGHLPIEIKAVPEGFVIPRGNVLFTVENTDPECYWLTNWIETILVQSWYPITVATNSREQKKILAKYLLETSGNLDGLEYKLHDFGYRGVSSQETAGIGASAHLVNFKGTDTVAGLALIKKYYGTKDPVPGYSVPAAEHSTITAWGKDHEKDAFEHIVTQFSSVPVSVVSDSYDIYNACEKIWGEDLRHLIVSRSTQAPLIIRPDSGNPLDTVLKVLEILGKKFPVTENSKGYKLLPPYLRVIQGDGVDINTLQEIVEGMKQKMWSIENIAFGSGGGLLQKLTRDLLNCSFKCSYVVTNGLGINVFKDPVADPNKRSKKGRLSLHRTPAGNFVTLEEGKGDLEEYGQDLLHTVFKNGKVTKSYSFDEIRKNAQLNIELEAAHH
notes: Pulled down with anti-His, so it carries a His tag; also called eNAMPT (rNAMPT); unlabeled NAMPT
B4: endogenous NAMPT / extracellular NAMPT (eNAMPT) of mouse macrophages (BMDMs) and mouse colon (enzyme, UniProt Q99KQ4 1-491, looked up)
chain: MNAAAEAEFNILLATDSYKVTHYKQYPPNTSKVYSYFECREKKTENSKVRKVKYEETVFYGLQYILNKYLKGKVVTKEKIQEAKEVYREHFQDDVFNERGWNYILEKYDGHLPIEVKAVPEGSVIPRGNVLFTVENTDPECYWLTNWIETILVQSWYPITVATNSREQKKILAKYLLETSGNLDGLEYKLHDFGYRGVSSQETAGIGASAHLVNFKGTDTVAGIALIKKYYGTKDPVPGYSVPAAEHSTITAWGKDHEKDAFEHIVTQFSSVPVSVVSDSYDIYNACEKIWGEDLRHLIVSRSTEAPLIIRPDSGNPLDTVLKVLDILGKKFPVTENSKGYKLLPPYLRVIQGDGVDINTLQEIVEGMKQKKWSIENVSFGSGGALLQKLTRDLLNCSFKCSYVVTNGLGVNVFKDPVADPNKRSKKGRLSLHRTPAGNFVTLEEGKGDLEEYGHDLLHTVFKNGKVTKSYSFDEVRKNAQLNIEQDVAPH
notes: Endogenous protein of mouse cells or tissue, immunoprecipitated with anti-NAMPT; also called iNAMPT

Experiments:
[1] = target: B3; assay: fluorescence binding: titration of fluorescently labeled CYBB with unlabeled rNAMPT, curve fit
Description: Specifically, (A) normal human cases along with UC patients were used for IB with αNAMPT and αCYBB. For IB with αActin (upper), whole cell lysates (WCLs) were used. Representative gel images derived from five independent healthy controls and patients were shown. […] Five of ten data from normal human and UC patients were shown. […] (B) The colons of normal mice and mice with acute and chronic colitis were analyzed for IB with αNAMPT and αCYBB. WCLs were used for IB together with αActin. Biological replicates (n=10) for each condition were performed. (C) BMDMs were activated with LPS (100 ng/mL) for the indicated times (left), primed with LPS (100 ng/ml) for 4 hours, and then stimulated with ATP (1 mM) for the indicated times (right). IB in the supernatant (SN) with αNAMPT and WCL with αNAMPT or αActin. […] BMDMs were treated for IP with αNAMPT or αHis, and then treated sequentially IB with αTLR4, αCYBB, or αCYBA (D), and IB with αASC or αNLRP3(E). WCLs were used for IB with αTLR4, αCYBB, αCYBA, αASC, αNLRP3 or αActin.

[2] = target: B4; assay: co-IP (anti-NAMPT) from LPS/ATP-treated BMDMs, anti-ASC blot
[3] = target: B3; assay: co-IP (anti-His) from BMDMs incubated with rNAMPT, anti-ASC blot
[4] = target: T3, endogenous NLRP3 of mouse macrophages (BMDMs) (mouse, UniProt Q8R4B8 1-1033, limits assumed); assay: co-IP (anti-His) from BMDMs incubated with rNAMPT, anti-NLRP3 blot
T3 sequence (Q8R4B8 whole entry): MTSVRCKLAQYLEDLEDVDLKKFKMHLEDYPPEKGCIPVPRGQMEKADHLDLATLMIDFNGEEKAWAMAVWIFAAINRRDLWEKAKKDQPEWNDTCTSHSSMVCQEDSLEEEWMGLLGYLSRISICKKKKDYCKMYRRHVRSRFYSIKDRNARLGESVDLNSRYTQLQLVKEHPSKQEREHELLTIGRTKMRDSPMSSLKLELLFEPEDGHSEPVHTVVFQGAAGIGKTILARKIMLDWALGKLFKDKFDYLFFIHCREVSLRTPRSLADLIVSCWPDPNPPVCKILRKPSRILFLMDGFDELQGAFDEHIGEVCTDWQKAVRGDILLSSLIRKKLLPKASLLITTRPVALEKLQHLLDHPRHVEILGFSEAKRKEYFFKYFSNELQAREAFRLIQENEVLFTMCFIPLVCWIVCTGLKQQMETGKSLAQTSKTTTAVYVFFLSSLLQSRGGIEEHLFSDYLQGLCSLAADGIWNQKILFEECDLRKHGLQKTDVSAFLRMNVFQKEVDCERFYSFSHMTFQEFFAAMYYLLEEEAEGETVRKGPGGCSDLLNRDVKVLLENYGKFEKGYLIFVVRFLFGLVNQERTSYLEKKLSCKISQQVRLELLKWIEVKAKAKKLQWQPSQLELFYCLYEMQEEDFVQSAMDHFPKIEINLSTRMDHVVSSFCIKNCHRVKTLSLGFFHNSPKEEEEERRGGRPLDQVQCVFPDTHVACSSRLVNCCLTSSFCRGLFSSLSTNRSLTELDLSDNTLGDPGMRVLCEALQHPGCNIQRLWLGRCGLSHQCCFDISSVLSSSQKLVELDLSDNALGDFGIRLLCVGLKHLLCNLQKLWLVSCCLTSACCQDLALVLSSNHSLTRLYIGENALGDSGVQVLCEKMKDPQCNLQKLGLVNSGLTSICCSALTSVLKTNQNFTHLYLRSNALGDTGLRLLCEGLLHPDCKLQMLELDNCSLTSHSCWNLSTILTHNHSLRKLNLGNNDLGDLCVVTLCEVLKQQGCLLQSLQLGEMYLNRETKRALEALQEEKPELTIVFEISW

[5] = target: T3, endogenous NLRP3 of mouse macrophages …; assay: co-IP (anti-NAMPT) from LPS/ATP-treated BMDMs, anti-NLRP3 blot
[6] = target: T1, endogenous CYBB of mouse macrophages …; assay: co-IP (anti-His or anti-NAMPT) from mouse colon tissue, anti-CYBB blot
[7] = target: T2, endogenous TLR4 of mouse macrophages …; assay: co-IP (anti-His or anti-NAMPT) from mouse colon tissue, anti-TLR4 blot

B1
Kd [1]: 896 nM

B2
binding result [2]: no binding
binding result [3]: no binding (tested: 1 ug/mL rNAMPT)

B3
binding result [4]: no binding (tested: 1 ug/mL rNAMPT)

B4
binding result [5]: no binding
binding result [6]: binds
binding result [7]: binds
